Our source for the binding signal values is publication PMC6602471.

In this data set the target is T1, ETS1 (Homo sapiens) (UniProt P14921).
T1 sequence (P14921 whole entry, looked up): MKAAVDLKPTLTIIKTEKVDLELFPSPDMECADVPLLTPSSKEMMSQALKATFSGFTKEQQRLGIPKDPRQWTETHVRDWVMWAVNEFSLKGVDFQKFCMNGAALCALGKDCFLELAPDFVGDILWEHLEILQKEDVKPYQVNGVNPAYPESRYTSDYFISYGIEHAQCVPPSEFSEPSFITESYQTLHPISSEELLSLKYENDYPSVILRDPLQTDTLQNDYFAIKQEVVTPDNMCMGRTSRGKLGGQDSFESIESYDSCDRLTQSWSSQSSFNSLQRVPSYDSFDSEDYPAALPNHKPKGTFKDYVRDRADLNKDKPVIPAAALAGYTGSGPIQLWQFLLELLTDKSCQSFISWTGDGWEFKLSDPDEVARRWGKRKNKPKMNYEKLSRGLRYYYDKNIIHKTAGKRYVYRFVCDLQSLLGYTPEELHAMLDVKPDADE
The data set is described as follows: PBM. To be noted: Custom protein-binding microarray; buffer, salt, pH and temperature not given in the material.
“CGGAAGTGTCGTAAACGTCGGAAATCCGGTTCTTCTGTCTTGATTCGCTTGACGCTGCTG (double strand) [seq01_p23 T>A]”: the binding signal is 9.71 log signal.
For “CGGAAGTGTCGTAAACGTCGGACATCCGGTTCTTCTGTCTTGATTCGCTTGACGCTGCTG (double strand) [seq01_p23 T>C]”, the binding signal amounted to 12.6 log signal.
Then “CGGAAGTGTCGTAAACGTCGGAGATCCGGTTCTTCTGTCTTGATTCGCTTGACGCTGCTG (double strand) [seq01_p23 T>G]”, with 8.83 log signal.
For the sequence “CGGAAGTGTCGTAAACGTCGGATAACCGGTTCTTCTGTCTTGATTCGCTTGACGCTGCTG (double strand) [seq01_p25 T>A]”, the binding signal was determined as 8.34 log signal.
As to “CGGAAGTGTCGTAAACGTCGGATACCCGGTTCTTCTGTCTTGATTCGCTTGACGCTGCTG (double strand) [seq01_p25 T>C]”, the binding signal is 8.31 log signal.
Then “CGGAAGTGTCGTAAACGTCGGATAGCCGGTTCTTCTGTCTTGATTCGCTTGACGCTGCTG (double strand) [seq01_p25 T>G]”, with 8.18 log signal.
As to “CGGAAGTGTCGTAAACGTCGGATATACGGTTCTTCTGTCTTGATTCGCTTGACGCTGCTG (double strand) [seq01_p26 C>A]”, the binding signal stood at 9.21 log signal.
For the sequence “CGGAAGTGTCGTAAACGTCGGATATCAGGTTCTTCTGTCTTGATTCGCTTGACGCTGCTG (double strand) [seq01_p27 C>A]”, the binding signal stood at 8.51 log signal.
Then “CGGAAGTGTCGTAAACGTCGGATATCCAGTTCTTCTGTCTTGATTCGCTTGACGCTGCTG (double strand) [seq01_p28 G>A]”, with 8.64 log signal; and “CGGAAGTGTCGTAAACGTCGGATATCCCGTTCTTCTGTCTTGATTCGCTTGACGCTGCTG (double strand) [seq01_p28 G>C]”, with 8.7 log signal.
As for “CGGAAGTGTCGTAAACGTCGGATATCCGATTCTTCTGTCTTGATTCGCTTGACGCTGCTG (double strand) [seq01_p29 G>A]”, the binding signal worked out at 8.64 log signal.
Next, “CGGAAGTGTCGTAAACGTCGGATATCCGCTTCTTCTGTCTTGATTCGCTTGACGCTGCTG (double strand) [seq01_p29 G>C]”: 10.1 log signal; “CGGAAGTGTCGTAAACGTCGGATATCCGGATCTTCTGTCTTGATTCGCTTGACGCTGCTG (double strand) [seq01_p30 T>A]”: 9.94 log signal; “CGGAAGTGTCGTAAACGTCGGATATCCGGCTCTTCTGTCTTGATTCGCTTGACGCTGCTG (double strand) [seq01_p30 T>C]”: 10.7 log signal.
Turning to “CGGAAGTGTCGTAAACGTCGGATATCCGGGTCTTCTGTCTTGATTCGCTTGACGCTGCTG (double strand) [seq01_p30 T>G]”, the binding signal came to 10.2 log signal.
Next, “CGGAAGTGTCGTAAACGTCGGATATCCGGTTCTTCTGTCTTGATTCGCTTGACGCTGCTG (double strand) [seq01_wt0]”: 11.9 log signal.
Next, “CGGAAGTGTCGTAAACGTCGGATATCCGTTTCTTCTGTCTTGATTCGCTTGACGCTGCTG (double strand) [seq01_p29 G>T]”: 9.45 log signal.
On to “CGGAAGTGTCGTAAACGTCGGATATCCTGTTCTTCTGTCTTGATTCGCTTGACGCTGCTG (double strand) [seq01_p28 G>T]”, for which the binding signal amounted to 10.1 log signal.
Next, “CGGAAGTGTCGTAAACGTCGGATATCGGGTTCTTCTGTCTTGATTCGCTTGACGCTGCTG (double strand) [seq01_p27 C>G]”: 8.65 log signal.
Then “CGGAAGTGTCGTAAACGTCGGATATCTGGTTCTTCTGTCTTGATTCGCTTGACGCTGCTG (double strand) [seq01_p27 C>T]”, with 8.37 log signal.
Next, “CGGAAGTGTCGTAAACGTCGGATATGCGGTTCTTCTGTCTTGATTCGCTTGACGCTGCTG (double strand) [seq01_p26 C>G]”: 8.38 log signal.
With “CGGAAGTGTCGTAAACGTCGGATATTCGGTTCTTCTGTCTTGATTCGCTTGACGCTGCTG (double strand) [seq01_p26 C>T]”, the binding signal was determined as 8.55 log signal.
Then “CGGAAGTGTCGTAAACGTCGGATCTCCGGTTCTTCTGTCTTGATTCGCTTGACGCTGCTG (double strand) [seq01_p24 A>C]”, with 8.47 log signal; and “CGGAAGTGTCGTAAACGTCGGATGTCCGGTTCTTCTGTCTTGATTCGCTTGACGCTGCTG (double strand) [seq01_p24 A>G]”, with 9.65 log signal; and “CGGAAGTGTCGTAAACGTCGGATTTCCGGTTCTTCTGTCTTGATTCGCTTGACGCTGCTG (double strand) [seq01_p24 A>T]”, with 12.5 log signal.
Then “CGGAAGTGTCGTAAACGTCGGCTATCCGGTTCTTCTGTCTTGATTCGCTTGACGCTGCTG (double strand) [seq01_p22 A>C]”, with 8.79 log signal.
Next, “CGGAAGTGTCGTAAACGTCGGGTATCCGGTTCTTCTGTCTTGATTCGCTTGACGCTGCTG (double strand) [seq01_p22 A>G]”: 10.5 log signal.
Turning to “CGGAAGTGTCGTAAACGTCGGTTATCCGGTTCTTCTGTCTTGATTCGCTTGACGCTGCTG (double strand) [seq01_p22 A>T]”, the binding signal worked out at 9.21 log signal.
For “GCTGCTGCGGTGCATACCCCACCGGATGTGACCCCGGTCTTGATTCGCTTGACGCTGCTG (double strand) [seq02_wt0]”, the binding signal stood at 10.2 log signal.
Turning to “GGAAAAAGGCCCAGGGTAACACCGGAAGTGGGCTTAGTCTTGATTCGCTTGACGCTGCTG (double strand) [seq04_wt0]”, the binding signal is 12 log signal.
